Data taken from patent publication US7189691B2, “Methods and compositions for treating leukemia” (The Administrators of the Tulane Educational Fund, priority 2004, dated 2007).
Ends that are not written are not given here.

How the values were obtained:
[1] = target: T1, AF4-AF9 interaction (Homo sapiens, UniProt P42568); assay: Enzyme-linked protein binding assay, GST-AF4(749-775) and biotinylated AF9; details: peptide 20 μg/ml; FIG. 2A
T1 construct: made in house; host or cells: GST-AF4 from E. coli; AF9 by coupled in vitro transcription/translation (Promega)
T1 sequence (P42568 211-568): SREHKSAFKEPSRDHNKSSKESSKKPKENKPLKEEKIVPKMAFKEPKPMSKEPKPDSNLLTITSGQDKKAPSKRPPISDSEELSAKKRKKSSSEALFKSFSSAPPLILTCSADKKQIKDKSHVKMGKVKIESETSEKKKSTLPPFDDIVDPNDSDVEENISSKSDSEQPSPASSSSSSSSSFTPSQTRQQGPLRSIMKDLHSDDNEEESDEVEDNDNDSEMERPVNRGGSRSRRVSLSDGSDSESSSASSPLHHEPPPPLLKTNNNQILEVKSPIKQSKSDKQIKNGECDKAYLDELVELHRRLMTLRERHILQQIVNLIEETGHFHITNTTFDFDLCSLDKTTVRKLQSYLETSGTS
Description: Next, an enzyme-linked protein binding assay was developed as a potential high throughput tool to semi-quantitatively assess the ability of various compounds to disrupt the AF4-AF9 interaction in vitro (FIGS. 2A and 2B).
GST-AF4 (749–775) SEQ ID NO: 107 was bound to glutathione-coated 96-well plates and incubated with biotinylated AF9 in conjunction with 20 μg/ml of the following peptides: • (a) Pen-[…], a fusion protein of PENETRATIN™ transporter peptide to the amino terminus of […](SEQ ID NO: 110, PFmut), • (b) Pen-[…], a fusion protein of the transporter protein PENETRATIN™ to the amino terminus of […](SEQ ID NO: 2; or PFWT), • (c) […] or […](SEQ ID NO: 111); • (d) […] or […] (SEQ ID NO: 112); • (e) […] or […](SEQ ID NO: 113), or with • (f) DMSO, or • (g) GST-Cx, a control.
The plate was washed and the retention of AF9 was determined by a colorimetric assay using streptavidin-alkaline phosphatase and pNPP as a substrate. […] At this same peptide concentration, PFmut (a) in col. […] The 10 amino acid peptide (d) in col. 6 is the smallest molecule found to have activity in vitro.

[2] = tested on: B1 leukemia cell line; assay: MTT viability assay; type: cell-based; details: 72 h, differing concentrations
Description: All cell lines were maintained in RPMI 1640+10% FCS. 100 μl aliquots of cell suspension (5×10^5 cells/ml) were cultured in flat-bottomed 96 well plates in the presence of different concentrations of peptides. After 72 h incubation at 37° C. in humidified air containing 5% CO2, viable cell number was determined by MTT assay as follows: 10 μl of 3-[4,5-dimethylthiazol-2-yl]-2,5-diphenyl tetrazolium bromide (MTT) (5 mg/ml concentration) (Sigma) was added to each well and incubated further for 6 h. Formazan crystals that are formed during incubation were dissolved in 100 μl of acidified isopropanol. The optical density at 550 nm (which is linearly related to the number of viable cells) was measured using a plate spectrophotometer. Growth characteristics of the leukemia cell lines were also determined for cells by Trypan Blue exclusion.

LWVKIDLDLLSR [(c)]
AF9 binding to GST-AF4 (retention of AF9) [1]: block AF9 binding

Leu-Trp-Val-Lys-Ile-Asp-Leu-Asp-Leu-Leu- (LWVKIDLDLL; structurally based on a fragment of the naturally occuring human and murine AF4 protein family members) [(d)]
AF9 binding to GST-AF4 (retention of AF9) [1]: block AF9 binding

Lys-Lys-Lys-Lys-Lys-Lys-Arg-Lys-Val-Leu-Ile-Val-Arg-Ile-Asp-Leu-Asp-Leu-Leu-Ser- (KKKKKKRKVLIVRIDLDLLS; structurally based on a fragment of the naturally occuring human and murine AF4 protein family members) [SPK4]
cell viability [2]: inhibits

WVKIDLDL [(e)]
AF9 binding to GST-AF4 (retention of AF9) [1]: did not interfere with AF9 binding
